Experimental data as given in article PMC12363979 (International Journal of Nanomedicine, 2025).

Columns and labels:
[1] = molecular target: T1, RSV F construct DS2 (stabilized prefusion F trimer) (human RSV A, Long strain (paper); …, stabilised); experiment: SPR
T1 chain: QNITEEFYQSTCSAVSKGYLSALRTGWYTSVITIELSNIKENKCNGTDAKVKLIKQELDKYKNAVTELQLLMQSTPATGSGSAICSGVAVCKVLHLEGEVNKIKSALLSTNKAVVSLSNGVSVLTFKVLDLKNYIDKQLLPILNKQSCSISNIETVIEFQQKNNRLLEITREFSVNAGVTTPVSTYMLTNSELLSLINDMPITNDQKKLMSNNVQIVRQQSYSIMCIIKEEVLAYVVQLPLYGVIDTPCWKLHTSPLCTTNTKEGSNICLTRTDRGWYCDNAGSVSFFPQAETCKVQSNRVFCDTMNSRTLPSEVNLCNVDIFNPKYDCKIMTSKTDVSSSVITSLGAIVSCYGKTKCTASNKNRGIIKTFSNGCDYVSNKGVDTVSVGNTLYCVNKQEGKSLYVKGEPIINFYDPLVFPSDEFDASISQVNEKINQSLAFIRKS

[2] = molecular target: T2, DS2-I53-50 nanoparticle (DS2-I53-50A co-assembled with I53-50B) (human RSV A, Long strain (paper); …, stabilised); experiment: SPR
T2 chain: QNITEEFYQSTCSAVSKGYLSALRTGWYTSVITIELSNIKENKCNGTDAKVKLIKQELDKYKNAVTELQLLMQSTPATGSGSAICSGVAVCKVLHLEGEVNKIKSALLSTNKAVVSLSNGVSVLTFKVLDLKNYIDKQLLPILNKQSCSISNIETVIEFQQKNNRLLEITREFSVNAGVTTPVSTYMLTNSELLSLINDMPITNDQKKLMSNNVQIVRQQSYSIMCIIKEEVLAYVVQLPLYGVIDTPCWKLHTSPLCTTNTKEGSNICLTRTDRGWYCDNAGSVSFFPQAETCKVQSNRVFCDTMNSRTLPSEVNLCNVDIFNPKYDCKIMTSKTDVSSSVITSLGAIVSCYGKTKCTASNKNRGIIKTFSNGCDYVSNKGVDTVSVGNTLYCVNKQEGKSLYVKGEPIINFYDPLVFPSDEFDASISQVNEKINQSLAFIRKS

B1: D25 monoclonal antibody (IgG) (antibody, V domains shown)
VH: QVQLVQSGAEVKKPGSSVMVSCQASGGPLRNYIINWLRQAPGQGPEWMGGIIPVLGTVHYAPKFQGRVTITADESTDTAYIHLISLRSEDTAMYYCATETALVVSTTYLPHYFDNWGQGTLVTVSS
VL: DIQMTQSPSSLSAAVGDRVTITCQASQDIVNYLNWYQQKPGKAPKLLIYVASNLETGVPSRFSGSGSGTDFSLTISSLQPEDVATYYCQQYDNLPLTFGGGTKVEIK
[1]
  kon: 114000 M⁻¹ s⁻¹
[2]
  kon: 1.39e+06 M⁻¹ s⁻¹

B2: AM14 monoclonal antibody (IgG) (antibody, V domains shown)
VH: EVQLVESGGGVVQPGRSLRLSCAASGFSFSHYAMHWVRQAPGKGLEWVAVISYDGENTYYADSVKGRFSISRDNSKNTVSLQMNSLRPEDTALYYCARDRIVDDYYYYGMDVWGQGATVTVSS
VL: DIQMTQSPSSLSASVGDRVTITCQASQDIKKYLNWYHQKPGKVPELLMHDASNLETGVPSRFSGRGSGTDFTLTISSLQPEDIGTYYCQQYDNLPPLTFGGGTKVEIK
[1]
  kon: 438000 M⁻¹ s⁻¹
[2]
  kon: 4.33e+06 M⁻¹ s⁻¹
